Measured values: patent US20110263454A1, “Methods of Identifying Functional Characteristics of Promoters, Transcription Modifying Proteins and Transcription Modulating Agents” (Salk Institute for Biological Studies, priority 2008, published 2011)

What was measured:
[1] = test system: hMDR1 promoter; experiment: NHR-promoter luciferase screen, hMDR1 promoter; type: cell-based, human; settings: for Luc. act., normalized to lacZ / Normalized Luc. act., normalized to control: MDR1 promoter, HR/ligand component; for hMDR1 promoter reporter activity: transcription factor +/- ligand, control = 1.00
Experimental: (§1) The use, feasibility, and reproducibility of the functional NHR-promoter screen in a 48-well format have been tested validated. Briefly, there were co-expressed 50 ng of each NHR/NHR homodimer or NHR/RXR heterodimer with 100 ng promoter/luciferase construct and 50 ng of LacZ (as a control for transfection efficiency) in CV-1 cells using Fugene HD (Roche) as a transfection reagent (alternatively or additionally, a CMV-YFP construct can be used as a transfection control). Each of the nuclear hormone receptors that were used in these experiments was cloned into a pcDNA3.1 vector and comprised a C-terminally linked V5H6 tag. Twenty-four hours after transfection, appropriate ligands were added, where applicable, (see Table 5 for various ligands and concentrations and after 48 hrs, samples were assayed for luciferase and LacZ activity. To measure for luciferase activity 15 ul of sample was added to 30 ul of luciferase buffer (20 mM tricine, 1.07 mM MgCarbonate, 2.67 mM MgSulfate, 0.1 mM Naz-EDTA, 5 mM DTT, 5 mM ATP, 0.15 mg/ml CoA, 0.5 mM Luciferin), mixed briefly, and run in a Perkin Elmer Victor 5 luminometer. Thus, the functional NHR-promoter screen was used to observe the transcriptional activity of 29 promoters from various physiological pathways including inflammation, lipid and sugar metabolism, cholesterol transport, xenobiotic metabolism, and circadian rhythm.
(§2) The promoters that facilitate transcription of the indicated gene products that were tested using the protocols described herein are listed in the first row of the table. The nuclear hormone receptors and, where applicable, ligands that were assayed for their transcriptional effects on the promoters are listed in the first column of the table. The data represent the luciferase activity of each sample normalized to both the lacZ activity of that sample and to a control, e.g., no NHR or ligand, as customary in the art. As described previously, these normalizations allow the transcriptional activity of each reporter cell to be compared to other samples.
(§3) Tables 7-40 show the transcriptional effects of the hormone receptors, and, where applicable, ligands (orphan receptors are screened without ligand), on each individual promoter. […] The control data of each table are shown in their last rows.

[2] = test system: hTNFa promoter; experiment: NHR-promoter luciferase screen, hTNFa promoter; type: cell-based, human; settings: for Luc. act., normalized to lacZ / Normalized Luc. act., normalized to control: TNFa promoter, HR component without or with ligand; for hTNFa promoter reporter activity: transcription factor +/- ligand, control = 1.00
Experimental: as §1, §2, §3

[3] = test system: hPOMC promoter; experiment: NHR-promoter luciferase screen, hPOMC promoter; type: cell-based, human; settings: for Luc. act., normalized to lacZ / Normalized Luc. act., normalized to control: hPOMC promoter, HR/ligand component; for hPOMC promoter reporter activity: transcription factor +/- ligand, control = 1.00
Experimental: as §1, §2, §3

[4] = test system: mDio1 promoter; experiment: NHR-promoter luciferase screen, mDio1 promoter; type: cell-based, mouse; settings: for Luc. act., normalized to lacZ / Normalized Luc. act., normalized to control: Dio1, HR component without or with its ligand; for mDio1 promoter reporter activity: transcription factor +/- ligand, control = 1.00
Experimental: as §1, §2, §3

[5] = test system: mAgrp promoter; experiment: NHR-promoter luciferase screen, mAgrp promoter; type: cell-based, mouse; settings: for Results of assays of transcription factor (+/- ligand) with mAgrp: Table 6d, luciferase activity relative to control (control = 1.00); for Luc. act., normalized to lacZ / Normalized Luc. act., normalized to control: mAgrp promoter, HR component with or without ligand; for Normalized Luc. act., normalized to control: relative to control
Experimental: as §1, §2, §3

[6] = test system: mADRP promoter; experiment: NHR-promoter luciferase screen, mADRP promoter; type: cell-based, mouse; settings: for Luc. act., normalized to lacZ / Normalized Luc. act., normalized to control: ADRP promoter, HR/ligand component; for mADRP promoter reporter activity: transcription factor +/- ligand, control = 1.00
Experimental: as §1, §2, §3

Row | Molecule | Luc. act., normalized to lacZ [1] | Normalized Luc. act., normalized to control [1] | hMDR1 promoter reporter activity [1] | Luc. act., normalized to lacZ [2] | Normalized Luc. act., normalized to control [2] | hTNFa promoter reporter activity [2] | Luc. act., normalized to lacZ [3] | Normalized Luc. act., normalized to control [3] | hPOMC promoter reporter activity [3] | Luc. act., normalized to lacZ [4] | Normalized Luc. act., normalized to control [4] | mDio1 promoter reporter activity [4] | Results of assays of transcription factor (+/- ligand) with mAgrp [5] | Luc. act., normalized to lacZ [5] | Normalized Luc. act., normalized to control [5] | Luc. act., normalized to lacZ [6] | Normalized Luc. act., normalized to control [6] | mADRP promoter reporter activity [6]
1 | SF-1: Steroidogenic Factor 1 (NR5A1, SF1), cDNA driver | 0.7 | 2.4 | 2.36 | 1900.9 | 1.9 | 1.93 | 13.1 | 3.1 | 3.06 | 19.8 | 4.5 | 4.45 | 3.58 | 141.9 | 3.6 | 1864.1 | 3.7 | 3.75
2 | HNF4a: Hepatocyte Nuclear Factor α (NR2A1), cDNA driver (protein, UniProt P41235 1-474, looked up) Hepatocyte nuclear factor …: MRLSKTLVDMDMADYSAALDPAYTTLEFENVQVLTMGNDTSPSEGTNLNAPNSLGVSALCAICGDRATGKHYGASSCDGCKGFFRRSVRKNHMYSCRFSRQCVVDKDKRNQCRYCRLKKCFRAGMKKEAVQNERDRISTRRSSYEDSSLPSINALLQAEVLSRQITSPVSGINGDIRAKKIASIADVCESMKEQLLVLVEWAKYIPAFCELPLDDQVALLRAHAGEHLLLGATKRSMVFKDVLLLGNDYIVPRHCPELAEMSRVSIRILDELVLPFQELQIDDNEYAYLKAIIFFDPDAKGLSDPGKIKRLRSQVQVSLEDYINDRQYDSRGRFGELLLLLPTLQSITWQMIEQIQFIKLFGMAKIDNLLQEMLLGGSPSDAPHAHHPLHPHLMQEHMGTNVIVANTMPTHLSNGQMCEWPRPRGQAATPETPQPSPPGGSGSEPYKLLPGAVATIVKPLSAIPQPTITKQEVI | 0.2 | 0.8 | 0.77 | 852.9 | 0.9 | 0.87 | 3.5 | 0.8 | 0.81 | 10.0 | 2.3 | 2.25 | 0.91 | 36.1 | 0.9 | 729.1 | 1.5 | 1.47
3 | LXRb: Liver X Receptor β (NR1H2), cDNA driver (protein, UniProt P55055 1-460, looked up) Oxysterols receptor LXR-beta: MSSPTTSSLDTPLPGNGPPQPGAPSSSPTVKEEGPEPWPGGPDPDVPGTDEASSACSTDWVIPDPEEEPERKRKKGPAPKMLGHELCRVCGDKASGFHYNVLSCEGCKGFFRRSVVRGGARRYACRGGGTCQMDAFMRRKCQQCRLRKCKEAGMREQCVLSEEQIRKKKIRKQQQESQSQSQSPVGPQGSSSSASGPGASPGGSEAGSQGSGEGEGVQLTAAQELMIQQLVAAQLQCNKRSFSDQPKVTPWPLGADPQSRDARQQRFAHFTELAIISVQEIVDFAKQVPGFLQLGREDQIALLKASTIEIMLLETARRYNHETECITFLKDFTYSKDDFHRAGLQVEFINPIFEFSRAMRRLGLDDAEYALLIAINIFSADRPNVQEPGRVEALQQPYVEALLSYTRIKRPQDQLRFPRMLMKLVSLRTLSSVHSEQVFALRLQDKKLPPLLSEIWDVHE | 0.2 | 0.8 | 0.78 | 866.1 | 0.9 | 0.88 | 6.3 | 1.5 | 1.46 | 9.8 | 2.2 | 2.19 | 0.78 | 31.0 | 0.8 | 1191.8 | 2.4 | 2.40
4 | RORa: RAR-related Orphan Receptor α (NR1F1), cDNA driver (protein, UniProt P35398 1-523, looked up) Nuclear receptor ROR-alpha: MESAPAAPDPAASEPGSSGADAAAGSRETPLNQESARKSEPPAPVRRQSYSSTSRGISVTKKTHTSQIEIIPCKICGDKSSGIHYGVITCEGCKGFFRRSQQSNATYSCPRQKNCLIDRTSRNRCQHCRLQKCLAVGMSRDAVKFGRMSKKQRDSLYAEVQKHRMQQQQRDHQQQPGEAEPLTPTYNISANGLTELHDDLSNYIDGHTPEGSKADSAVSSFYLDIQPSPDQSGLDINGIKPEPICDYTPASGFFPYCSFTNGETSPTVSMAELEHLAQNISKSHLETCQYLREELQQITWQTFLQEEIENYQNKQREVMWQLCAIKITEAIQYVVEFAKRIDGFMELCQNDQIVLLKAGSLEVVFIRMCRAFDSQNNTVYFDGKYASPDVFKSLGCEDFISFVFEFGKSLCSMHLTEDEIALFSAFVLMSADRSWLQEKVKIEKLQQKIQLALQHVLQKNHREDGILTKLICKVSTLRALCGRHTEKLMAFKAIYPDIVRLHFPPLYKELFTSEFEPAMQIDG | 0.1 | 0.3 | 0.32 | 607.5 | 0.6 | 0.62 | 1.6 | 0.4 | 0.38 | 2.1 | 0.5 | 0.47 | 1.65 | 65.6 | 1.7 | 976.2 | 2.0 | 1.96
5 | RORg: RAR-related Orphan Receptor γ (NR1F3), cDNA driver (protein, UniProt P51449 1-518, looked up) Nuclear receptor ROR-gamma: MDRAPQRQHRASRELLAAKKTHTSQIEVIPCKICGDKSSGIHYGVITCEGCKGFFRRSQRCNAAYSCTRQQNCPIDRTSRNRCQHCRLQKCLALGMSRDAVKFGRMSKKQRDSLHAEVQKQLQQRQQQQQEPVVKTPPAGAQGADTLTYTLGLPDGQLPLGSSPDLPEASACPPGLLKASGSGPSYSNNLAKAGLNGASCHLEYSPERGKAEGRESFYSTGSQLTPDRCGLRFEEHRHPGLGELGQGPDSYGSPSFRSTPEAPYASLTEIEHLVQSVCKSYRETCQLRLEDLLRQRSNIFSREEVTGYQRKSMWEMWERCAHHLTEAIQYVVEFAKRLSGFMELCQNDQIVLLKAGAMEVVLVRMCRAYNADNRTVFFEGKYGGMELFRALGCSELISSIFDFSHSLSALHFSEDEIALYTALVLINAHRPGLQEKRKVEQLQYNLELAFHHHLCKTHRQSILAKLPPKGKLRSLCSQHVERLQIFQHLHPIVVQAAFPPLYKELFSTETESPVGLSK | 0.2 | 0.5 | 0.54 | 1152.0 | 1.2 | 1.17 | 2.1 | 0.5 | 0.50 | 5.7 | 1.3 | 1.29 | 2.51 | 99.6 | 2.5 | 929.8 | 1.9 | 1.87
